Reference: paper PMC7188823, “The BRCA2-MEILB2-BRME1 complex governs meiotic recombination and impairs the mitotic BRCA2-RAD51 function in cancer cells” (Nature Communications, 2020)
Values belong to the molecule of their own block, whether it stands above or below them.

T1: MEILB2 C-terminus (a.a. 87–338) (Mus musculus (Mouse), UniProt Q9D4G2)
T1 chain: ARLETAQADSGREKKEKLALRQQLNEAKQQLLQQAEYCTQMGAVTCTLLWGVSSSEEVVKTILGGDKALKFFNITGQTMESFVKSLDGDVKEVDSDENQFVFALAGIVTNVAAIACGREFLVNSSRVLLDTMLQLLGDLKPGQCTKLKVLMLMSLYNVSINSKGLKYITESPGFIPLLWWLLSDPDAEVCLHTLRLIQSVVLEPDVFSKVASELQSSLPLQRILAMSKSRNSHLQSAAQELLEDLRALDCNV

B1: MEILB2 C-terminus (a.a. 87–338) (domain or fragment, mouse, UniProt Q9D4G2 87-338, looked up)
chain: T1 chain
notes: MEILB2/HSF2BP, mouse, a.a; 87-338 (27.9 kDa in theory); pET-Duet for the co-expression, pSmt3 for the protein alone; also called mMEILB2 a.a; 87–338; source: E. coli BL21(DE3), purified (Ni-NTA, Ulp1 cleavage, cation exchange, size-exclusion chromatography); expressed alone or co-expressed with BRCA2 (a.a. 2219–2285); not shown: 10x His-Smt3, N-terminal, cleaved
B2: MEILB2 α1 (a.a. 18–55; tag removed) (domain or fragment, mouse, UniProt Q9D4G2 18-55, looked up)
chain: MESKEEFVKVRKKDLERLTTEVMQIRDFLPRILNGELL
notes: MEILB2/HSF2BP, mouse, α1, a.a; 18-55; source: E. coli BL21 (DE3), purified (Ni-NTA, amylose, ion exchange, TEV cleavage, size-exclusion chromatography); not shown: MBP, N-terminal, cleaved
B3: BRCA2-MBD fragment (a.a. 2219–2285) (domain or fragment, mouse, UniProt P97929 2219-2285, looked up)
chain: KRGGVTVDAVGQPPIKRSLLNEFDRIIESKGKSLTPSKSTPDGTVKDRSLFTHHMSLEPVTCGPFCS
notes: BRCA2, mouse, a.a; 2219-2285 (7.4 kDa in theory by the text); the His-Smt3 tag holds for the protein expressed alone (pSmt3); in the co-expression (pET-Duet) BRCA2 was untagged; also called mBRCA2 a.a; 2219–2285; source: E. coli BL21(DE3), purified (Ni-NTA, Ulp1 cleavage, size-exclusion chromatography, cation exchange); expressed alone or co-expressed untagged with His-Smt3-MEILB2 (a.a. 87–338)

Columns and labels:
[1] = target: MEILB2 α1 (a.a. 18–55; tag removed) (mouse) (UniProt Q9D4G2); assay: SEC-MALS; Superdex 200 Increase 10/300 GL; 20 mM Tris (pH 8.0), 150 mM KCl, 2 mM DTT; samples at >1 mg/ml; MEILB2 fragments alone or as purified complexes with BRME1-MBD
[2] = target: MEILB2 α1+2 (tag removed) (mouse); assay: as above
[3] = target: the molecule itself; assay: SEC-MALS; purified MEILB2 (a.a. 87–338)-BRCA2 (a.a. 2219–2285) heterocomplex; 500 µg on Superdex 200 10/300 at 0.5 ml/min
[4] = target: the molecule itself; assay: SEC-MALS; individual proteins; 500 µg on Superdex 200 10/300 at 0.5 ml/min
[5] = target: the molecule itself; assay: SEC-MALS; Superdex 200 Increase 10/300 GL; 20 mM Tris (pH 8.0), 150 mM KCl, 2 mM DTT; samples at >1 mg/ml; MEILB2 fragments alone or as purified complexes with BRME1-MBD
[6] = target: T1, MEILB2 C-terminus (a.a. 87–338); assay: co-expression co-purification, SEC and SEC-MALS
[7] = target: B1; assay: SEC-MALS; purified MEILB2 (a.a. 87–338)-BRCA2 (a.a. 2219–2285) heterocomplex; 500 µg on Superdex 200 10/300 at 0.5 ml/min; settings: both partners purified

stoichiometry N (BRME1-MBD per MEILB2 chain (2:2)) [1]: 1
stoichiometry N (BRME1-MBD per MEILB2 chain (2:2)) [2]: 1
Molecule: BRME1-MBD (a.a. 519–600), recombinant, His-tagged (from UniProt Q6DIA7 519-600) (domain or fragment)

Molecule: B1
stoichiometry N [3]: 4 chains in the oligomer
stoichiometry N [4]: 2 chains in the oligomer

Molecule: B2
stoichiometry N [5]: 4 chains in the oligomer

Molecule: B3
binding result [6]: binds
stoichiometry N [7]: ~0.5 BRCA2 per MEILB2 chain (4:2 MEILB2:BRCA2)
